Assay results reported in PMC6803667 (Scientific Reports, 2019).
Values joined by “and” are separate entries in the source; they are usually repeats but may differ in a detail not shown here. Equal entries are not always repeated.

Assays:
Conditions in all cases: both partners purified
[1] = target: T1, first WW domain of human YAP2 (YAP-WW1) (human, UniProt P46937-2 165-209); experiment: ITC
T1 construct: also called hYAP-WW1; not shown: GST, N-terminal, cleaved; His tag, N-terminal, cleaved

[2] = target: T2, second WW domain of human YAP2 (YAP-WW2) (human, UniProt P46937-2 228-271); experiment: ITC
T2 construct: also called hYAP-WW2; not shown: GST, N-terminal, cleaved; His tag, N-terminal, cleaved
T2 sequence (P46937 228-271): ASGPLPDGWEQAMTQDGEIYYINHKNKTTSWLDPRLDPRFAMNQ

[3] = target: T3, third WW domain of human NEDD4 (hNEDD4-WW3), unlabelled (human, UniProt P46934 834-878); experiment: ITC
T3 construct: not shown: GST, N-terminal, cleaved; His tag, N-terminal, cleaved
T3 sequence (P46934 834-878): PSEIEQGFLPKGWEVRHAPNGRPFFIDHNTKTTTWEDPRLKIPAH

[4] = target: T1, first WW domain of human YAP2 (YAP-WW1); experiment: other fluorescence titration; tryptophan fluorescence of the WW domain (20 uM), excitation 298 nm, centre of spectral mass against peptide concentration, one to one model; 20 mM sodium phosphate pH 7.0, 25 °C
[5] = target: T2, second WW domain of human YAP2 (YAP-WW2); experiment: as above
[6] = target: T1, first WW domain of human YAP2 (YAP-WW1); experiment: other fluorescence titration
[7] = target: T2, second WW domain of human YAP2 (YAP-WW2); experiment: other fluorescence titration

T1 sequence (P46937 165-209): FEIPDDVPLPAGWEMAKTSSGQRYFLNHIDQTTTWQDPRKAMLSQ

Binder | Kd [1] | dH [1] | Kd [2] [µM] | dH [2] [kcal/mol] | Kd [3] [µM] | dH [3] [kcal/mol] | Kd [4] [µM] | Kd [5] [µM] | Kd [6] [µM] | Kd [7] [µM]
Ac-EYPPYPPPPYPSG-NH2 [p53bp2 human peptide] | 3 µM and 1.1 µM and 1.8 µM | -14.6 kcal/mol and -15.9 kcal/mol and -13.1 kcal/mol | 12 ± 0.6 | -13.6 ± 0.239 |  |  |  |  |  | 
SDPQIPPPYVEP [HTLV1 Late domain peptide] |  |  |  |  | 61 ± 1 | -16.3 ± 0.143 | 308 ± 4 | 260 ± 40 |  | 
Ac-PPPYVEPTAP-NH2 (source: synthetic peptide, bought: SynBioSci Corporation) [HTLV1ter Late domain peptide] |  |  |  |  | 178 ± 3 | -17.7 ± 0.191 |  |  |  | 
ILPTAPPEYMEA [Ebola Late domain peptide] |  |  |  |  | 147 ± 4 | -12.1 ± 0.167 |  |  | 750 ± 10 | 560 ± 30
MQYLNPPPYADH [Marburg Late domain peptide] |  |  |  |  | 51 ± 1 | -17.5 ± 0.167 |  |  | 67 ± 4 | 17 ± 1
DLWLPPPEYVPL [Rabies Late domain peptide] | 181 ± 5 µM | -15.2 ± 0.215 kcal/mol |  |  | 51 ± 1 | -15.7 ± 0.191 |  |  |  | 
